The text below walks through data of US12233115B2, “Long-acting parathyroid hormone” (Extend Biosciences, Inc., priority 2022, dated 2025).

Data set [1] deals with T1, DBP (Homo sapiens, UniProt P02774).
T1 sequence (P02774 17-474): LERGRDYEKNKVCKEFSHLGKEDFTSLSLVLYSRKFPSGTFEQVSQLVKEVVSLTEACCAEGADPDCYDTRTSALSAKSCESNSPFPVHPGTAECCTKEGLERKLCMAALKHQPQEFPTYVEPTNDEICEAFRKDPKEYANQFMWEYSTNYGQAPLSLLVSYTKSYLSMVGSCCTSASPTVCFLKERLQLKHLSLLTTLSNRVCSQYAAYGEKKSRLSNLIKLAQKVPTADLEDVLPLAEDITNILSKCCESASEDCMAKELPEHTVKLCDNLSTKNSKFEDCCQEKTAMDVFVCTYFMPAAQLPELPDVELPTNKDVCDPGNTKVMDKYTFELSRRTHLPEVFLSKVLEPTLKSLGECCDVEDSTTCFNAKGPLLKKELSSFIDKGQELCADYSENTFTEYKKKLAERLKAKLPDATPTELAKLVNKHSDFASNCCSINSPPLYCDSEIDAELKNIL
To be noted: Norman et al. 2001, p. 51; cited from earlier work.

The test system of data set [2] is VDRnuc. To be noted: Norman et al. 2001, p. 51; cited from earlier work.
Data set [3] is described as follows: Solubility in PBS (A280). It counts as physicochemical. On the procedure: PEG Length and Counterion Affects Solubility: The solubility of the acetate and carbonate salt form of each compound was determined as follows. For EXT611, EXT606, and EXT608, phosphate buffered saline (PBS) was added to each compound to form a saturated solution. Undissolved compound was removed by centrifugation. The concentration of dissolved compound was determined by measuring the absorbance at 280 nm using an extinction coefficient of 18,600 M^−1 cm^−1. For EXT615, EXT616, and EXT617, solubility was limited practically by the high viscosity imparted by the large PEG moieties. Highly viscous drug formulations are difficult to manipulate and require large needle bore sizes that cause increased injection site pain. PBS was added to EXT615, EXT616, and EXT617 incrementally until a solution was obtained that could be successfully pipetted through a pipet tip with a bore of approximately 1 mm diameter (enlarged by removing the end with a razor blade). The concentration of dissolved compound was determined by measuring the absorbance at 280 nm using an extinction coefficient of 18,600 M^−1 cm^−1. […] For EXT608, the acetate salt was 17.6-fold more soluble than the carbonate salt.

For data set [4] the following is noted: human, in vivo, cited from earlier work.

Like-named read-outs stand apart in the source and are kept apart here.

With 25-hydroxyvitamin D [25(OH)D3], the “fold tighter binding to DBP than 1α,25(OH)2D3” value in data set [1] was 668 fold.
Consider `C=C1/C(=C\C=C2/CCC[C@]3(C)[C@@H]([C@H](C)CCCC(C)(C)O)CC[C@@H]23)C[C@@H](O)C[C@@H]1O` [1α,25(OH)2D3, 1,25-dihydroxyvitamin D3], for which, in data set [2], the “fold tighter binding to VDRnuc than 25(OH)D3” value is 668 fold.
One may read the solubility as the dissolved amount per volume that the medium holds. As to `C=C1CC[C@H](OCCCNC(=O)CCOCCOCCOCCOCCOCCOCCOCCOCCOCCOCCOCCOCCOCCOCCOCCOCCOCCOCCOCCOCCOCCOCCOCCOCCNC(=O)CCN2C(=O)CC(SC[C@H](NC(=O)[C@H](Cc3ccccc3)NC(=O)[C@H](CC(N)=O)NC(=O)[C@H](Cc3c[nH]cn3)NC(=O)[C@@H](NC(=O)[C@H](CC(=O)O)NC(=O)[C@H](CCC(N)=O)NC(=O)[C@H](CC(C)C)NC(=O)[C@H](CCCCN)NC(=O)[C@H](CCCCN)NC(=O)[C@H](CCCNC(=N)N)NC(=O)[C@H](CC(C)C)NC(=O)[C@H](Cc3c[nH]c4ccccc34)NC(=O)[C@H](CCC(=O)O)NC(=O)[C@@H](NC(=O)[C@H](CCCNC(=N)N)NC(=O)[C@H](CCC(=O)O)NC(=O)[C@H](CCSC)NC(=O)[C@H](CO)NC(=O)[C@H](CC(N)=O)NC(=O)[C@H](CC(C)C)NC(=O)[C@H](Cc3c[nH]cn3)NC(=O)[C@H](CCCCN)NC(=O)CNC(=O)[C@H](CC(C)C)NC(=O)[C@H](CC(N)=O)NC(=O)[C@H](Cc3c[nH]cn3)NC(=O)[C@H](CCSC)NC(=O)[C@H](CC(C)C)NC(=O)[C@H](CCC(N)=O)NC(=O)[C@@H](NC(=O)[C@H](CCC(=O)O)NC(=O)[C@H](CO)NC(=O)[C@@H](NC(=O)[C@@H](N)CO)C(C)C)[C@@H](C)CC)C(C)C)C(C)C)C(N)=O)C2=O)C/C1=C/C=C1\CCC[C@]2(C)[C@@H]([C@H](C)CCCC(C)(C)O)CC[C@@H]12` (some centres unmarked) [EXT606], the solubility in data set [3] (acetate salt, read-out: Solubility as Acetate) amounted to 907 µM; in data set [3] (carbonate salt, read-out: Solubility as Carbonate), 200 µM.
For the compound “PTH: Parathyroid hormone, polypeptide containing 84 amino acids (SEQ ID NO:2); literature half-life values”, in data set [4] (iv), the plasma half-life entry was “less than 15 minutes” and the serum half-life entry is recorded as “approximately 5 minutes”. In addition, in data set [4] (sc), the apparent half-life was 1.5 to 2.5 h and the “plasma half-life (estimated)” value is 2 to 3 h.
